Results from US20040265915A1, “Method to identify regulators of cellular activation using Bcl10” (priority 2003, published 2004).

Tested on: Bcl10-YFP POLKADOTS formation
Test: Bcl10-YFP POLKADOTS formation in antigen-stimulated D10 T cells, fluorescence microscopy
Format: cell-based, murine
Settings: D10 T cells with conalbumin-loaded CH12 B cells (100 μg/ml), fixed after 20 min, >200 T cells counted, FIG. 4
Description: D10-IL2 (henceforth referred to as D10) is an IL-2 dependent subclone of the CD4^+ T cell clone D10 (16), maintained as described (17). Primary T cell blasts were prepared by stimulation of spleen and lymph node cells with 100 μg/ml plate-bound anti-TCRP for 48 hr, with IL-2 added for the final 24 hr of stimulation. CH12H-2^k B cells and CHb H-2^b B cells (18) were maintained as described previously (17).
Murine PKCθ was fused to a C-terminal linker (GRVELGR; SEQ ID NO:7) followed by GFP or CFP (19), modified by mutations that improve folding at 37° C. (20). Two I.M.A.G.E. expressed sequence tag (EST) clones encoding murine Bcl10 were purchased (2123397 and 3026026; ResGen). Clone 3026026 was used for PCR amplification of Bc 10, adding the C-terminal linker GR, which was then fused to the previously described modified YFP gene (17). […]
The inventors next examined whether formation of Bcl10 POLKADOTS is PKC-dependent (FIG. 4 and FIG. 5). […] Cells were fixed after 20 minutes and examined by fluorescence microscopy. For each group, >200 T cells were counted, and percentages with and without POLKADOTS were determined.
CH12 B cells that had been pre-incubated with no antigen or with 250 μg/ml conalbumin protein were then added. Cells were fixed after 30 min and examined by fluorescence microscopy. […]

B1: conalbumin: conalbumin protein, specific antigen loaded on CH12 B cells to stimulate D10 T cells (protein, UniProt P02789 20-705, looked up)
Ovotransferrin: APPKSVIRWCTISSPEEKKCNNLRDLTQQERISLTCVQKATYLDCIKAIANNEADAISLDGGQAFEAGLAPYKLKPIAAEVYEHTEGSTTSYYAVAVVKKGTEFTVNDLQGKTSCHTGLGRSAGWNIPIGTLLHRGAIEWEGIESGSVEQAVAKFFSASCVPGATIEQKLCRQCKGDPKTKCARNAPYSGYSGAFHCLKDGKGDVAFVKHTTVNENAPDQKDEYELLCLDGSRQPVDNYKTCNWARVAAHAVVARDDNKVEDIWSFLSKAQSDFGVDTKSDFHLFGPPGKKDPVLKDLLFKDSAIMLKRVPSLMDSQLYLGFEYYSAIQSMRKDQLTPSPRENRIQWCAVGKDEKSKCDRWSVVSNGDVECTVVDETKDCIIKIMKGEADAVALDGGLVYTAGVCGLVPVMAERYDDESQCSKTDERPASYFAVAVARKDSNVNWNNLKGKKSCHTAVGRTAGWVIPMGLIHNRTGTCNFDEYFSEGCAPGSPPNSRLCQLCQGSGGIPPEKCVASSHEKYFGYTGALRCLVEKGDVAFIQHSTVEENTGGKNKADWAKNLQMDDFELLCTDGRRANVMDYRECNLAEVPTHAVVVRPEKANKIRDLLERQEKRFGVNGSEKSKFMMFESQNKDLLFKDLTKCLFKVREGTTYKEFLGDKFYTVISSLKTCNPSDILQMCSFLEGK
B1 was tested, and the “cells with Bcl10-YFP POLKADOTS” value was “over 80%”.
